Measured values published in the RNAGym collection of RNA variant scans (doi:10.1093/molbev/msab373).

B1: Azoarcus group I ribozyme (parent)
chain: GUGCCUUGCGCCGGGAAACCACGCAAGGGAUGGUGUCAAAUUCGGCGAAACCUAAGCGCCCGCCCGGGCGUAUGGCAACGCCGAGCCAAGCUUCGGCGCCUGCGCCGAUGAAGGUGUAGAGACUAGACGGCACCCACCUAAGGCAAACGCUAUGGUGAAGGCAUAGUCCAGGGAGUGGCGAAAGUCACACAAACCGG

Variants of: B1
Assay: reverse-splicing fitness (ratio to wild type); higher = more active; in vitro selection; Mg2+ level not given
Procedure, shortened: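 An in vitro group I ribozyme library with randomized positions was T7-transcribed and gel-purified. In triplicate, 10 pmol RNA in EPPS pH 7.5 was reacted with 50 pmoles of a 30-nt RNA substrate for 1 h at 37 °C across several added MgCl2 levels (1–48 mM), then stopped with EDTA. Products were reverse transcribed from a substrate-complementary primer, PCR-amplified and sequenced (HiSeq 4000). Fitness is a variant's read proportion after selection over that before, normalised to wild type.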

First: C82U A111C A120C A145U C150A C169G
Second: C82U A111C A120C A145U C150A C169G U176A
The reverse-splicing fitness of the first is lower: 0.00745 for the first, 0.0132 for the second.

Compared with C82U A111C A120C A145U C150A C169G U176C, C82U A111C A120C A145U C150A C169G U176G is lower in reverse-splicing fitness: 0.015 for the first, 0.00587 for the second.

Going from C82U A111C A120C A145U C150A C169U to C82U A111C A120C A145U C150A C169U U176A, the reverse-splicing fitness rises from 0.0101 to 0.0184.

Going from C82U A111C A120C A145U C150A C169U U176C to C82U A111C A120C A145U C150A C169U U176G, the reverse-splicing fitness falls from 0.014 to 0.00706.

Compared with C82U A111C A120C A145U C150A U176A, C82U A111C A120C A145U C150A U176C is higher in reverse-splicing fitness: 0.00905 for the first, 0.0135 for the second.

Compared with C82U A111C A120C A145U C150A U176G, C82U A111C A120C A145U C150G is higher in reverse-splicing fitness: 0.00561 for the first, 0.00723 for the second.

Compared with C82U A111C A120C A145U C150G C169A, C82U A111C A120C A145U C150G C169A U176A is higher in reverse-splicing fitness: 0.00863 for the first, 0.00888 for the second.

Compared with C82U A111C A120C A145U C150G C169A U176C, C82U A111C A120C A145U C150G C169A U176G is lower in reverse-splicing fitness: 0.00938 for the first, 0.00632 for the second.

Going from C82U A111C A120C A145U C150G C169G to C82U A111C A120C A145U C150G C169G U176A, the reverse-splicing fitness rises from 0.00628 to 0.00759.

Compared with C82U A111C A120C A145U C150G C169G U176C, C82U A111C A120C A145U C150G C169G U176G is lower in reverse-splicing fitness: 0.0066 for the first, 0.00558 for the second.

Compared with C82U A111C A120C A145U C150G C169U, C82U A111C A120C A145U C150G C169U U176A is lower in reverse-splicing fitness: 0.00844 for the first, 0.00839 for the second.

First: C82U A111C A120C A145U C150G C169U U176C
Second: C82U A111C A120C A145U C150G C169U U176G
The reverse-splicing fitness of the first is higher: 0.0132 for the first, 0.00581 for the second.

First: C82U A111C A120C A145U C150G U176A
Second: C82U A111C A120C A145U C150G U176C
The reverse-splicing fitness of the first is lower: 0.00578 for the first, 0.00923 for the second.

Compared with C82U A111C A120C A145U C150G U176G, C82U A111C A120C A145U C150U is higher in reverse-splicing fitness: 0.00321 for the first, 0.0199 for the second.

First: C82U A111C A120C A145U C150U C169A
Second: C82U A111C A120C A145U C150U C169A U176A
The reverse-splicing fitness of the first is lower: 0.00892 for the first, 0.0117 for the second.

Going from C82U A111C A120C A145U C150U C169A U176C to C82U A111C A120C A145U C150U C169A U176G, the reverse-splicing fitness falls from 0.00966 to 0.00665.

First: C82U A111C A120C A145U C150U C169G
Second: C82U A111C A120C A145U C150U C169G U176A
The reverse-splicing fitness of the first is lower: 0.00745 for the first, 0.0126 for the second.

Compared with C82U A111C A120C A145U C150U C169G U176C, C82U A111C A120C A145U C150U C169G U176G is lower in reverse-splicing fitness: 0.0142 for the first, 0.00521 for the second.

First: C82U A111C A120C A145U C150U C169U
Second: C82U A111C A120C A145U C150U C169U U176A
The reverse-splicing fitness of the first is lower: 0.0107 for the first, 0.0142 for the second.

Compared with C82U A111C A120C A145U C150U C169U U176C, C82U A111C A120C A145U C150U C169U U176G is lower in reverse-splicing fitness: 0.0161 for the first, 0.00597 for the second.

Going from C82U A111C A120C A145U C150U U176A to C82U A111C A120C A145U C150U U176C, the reverse-splicing fitness rises from 0.0105 to 0.0144.

First: C82U A111C A120C A145U C150U U176G
Second: C82U A111C A120C A145U C169A
The reverse-splicing fitness of the first is lower: 0.00604 for the first, 0.00732 for the second.

Compared with C82U A111C A120C A145U C169A U176A, C82U A111C A120C A145U C169A U176C is lower in reverse-splicing fitness: 0.0107 for the first, 0.0103 for the second.

Going from C82U A111C A120C A145U C169A U176G to C82U A111C A120C A145U C169G, the reverse-splicing fitness rises from 0.00532 to 0.00753.

First: C82U A111C A120C A145U C169G U176A
Second: C82U A111C A120C A145U C169G U176C
The reverse-splicing fitness of the first is lower: 0.013 for the first, 0.0132 for the second.

First: C82U A111C A120C A145U C169G U176G
Second: C82U A111C A120C A145U C169U
The reverse-splicing fitness of the first is lower: 0.00515 for the first, 0.0103 for the second.

Compared with C82U A111C A120C A145U C169U U176A, C82U A111C A120C A145U C169U U176C is higher in reverse-splicing fitness: 0.0127 for the first, 0.0145 for the second.

First: C82U A111C A120C A145U C169U U176G
Second: C82U A111C A120C A145U U176A
The reverse-splicing fitness of the first is lower: 0.0054 for the first, 0.0118 for the second.

Going from C82U A111C A120C A145U U176C to C82U A111C A120C A145U U176G, the reverse-splicing fitness falls from 0.0181 to 0.00547.

Going from C82U A111C A120C C150A to C82U A111C A120C C150A C169A, the reverse-splicing fitness falls from 0.00985 to 0.00879.

Going from C82U A111C A120C C150A C169A U176A to C82U A111C A120C C150A C169A U176C, the reverse-splicing fitness falls from 0.0186 to 0.0136.

Going from C82U A111C A120C C150A C169A U176G to C82U A111C A120C C150A C169G, the reverse-splicing fitness rises from 0.00712 to 0.00864.

First: C82U A111C A120C C150A C169G U176A
Second: C82U A111C A120C C150A C169G U176C
The reverse-splicing fitness of the first is lower: 0.0161 for the first, 0.0184 for the second.

First: C82U A111C A120C C150A C169G U176G
Second: C82U A111C A120C C150A C169U
The reverse-splicing fitness of the first is lower: 0.00704 for the first, 0.0128 for the second.

Going from C82U A111C A120C C150A C169U U176A to C82U A111C A120C C150A C169U U176C, the reverse-splicing fitness rises from 0.0178 to 0.0181.

Compared with C82U A111C A120C C150A C169U U176G, C82U A111C A120C C150A U176A is higher in reverse-splicing fitness: 0.00677 for the first, 0.0109 for the second.

Compared with C82U A111C A120C C150A U176C, C82U A111C A120C C150A U176G is lower in reverse-splicing fitness: 0.022 for the first, 0.00688 for the second.

First: C82U A111C A120C C150G
Second: C82U A111C A120C C150G C169A
The reverse-splicing fitness of the first is lower: 0.00785 for the first, 0.00879 for the second.

First: C82U A111C A120C C150G C169A U176A
Second: C82U A111C A120C C150G C169A U176C
The reverse-splicing fitness of the first is higher: 0.00943 for the first, 0.00876 for the second.

Going from C82U A111C A120C C150G C169A U176G to C82U A111C A120C C150G C169G, the reverse-splicing fitness rises from 0.00618 to 0.00626.

Compared with C82U A111C A120C C150G C169G U176A, C82U A111C A120C C150G C169G U176C is lower in reverse-splicing fitness: 0.00777 for the first, 0.0068 for the second.

C82U A111C A120C C150G C169G U176G gave a reverse-splicing fitness of 0.00547.
